Results published in IntAct's records for PubMed 22632968.

Key:
sun2_human SUN2 [1] = molecular target: sun2_human SUN2 (UniProt Q9UH99)
sun1_human SUN1 [2] = molecular target: sun1_human SUN1 (UniProt O94901)
sun1_human SUN1 [3] = molecular target: sun1_human SUN1 (UniProt O94901); remark: listed apart in the source
sun2_human SUN2 [4] = molecular target: sun2_human SUN2 (UniProt Q9UH99); remark: listed apart in the source
sun2_human SUN2 [5] = molecular target: sun2_human SUN2 (UniProt Q9UH99); remark: listed apart in the source
sun1_human SUN1 [6] = molecular target: sun1_human SUN1 (UniProt O94901); remark: listed apart in the source
sun2_human SUN2 [7] = molecular target: sun2_human SUN2 (UniProt Q9UH99); remark: listed apart in the source

Chain of sun2_human SUN2 (Q9UH99 whole entry): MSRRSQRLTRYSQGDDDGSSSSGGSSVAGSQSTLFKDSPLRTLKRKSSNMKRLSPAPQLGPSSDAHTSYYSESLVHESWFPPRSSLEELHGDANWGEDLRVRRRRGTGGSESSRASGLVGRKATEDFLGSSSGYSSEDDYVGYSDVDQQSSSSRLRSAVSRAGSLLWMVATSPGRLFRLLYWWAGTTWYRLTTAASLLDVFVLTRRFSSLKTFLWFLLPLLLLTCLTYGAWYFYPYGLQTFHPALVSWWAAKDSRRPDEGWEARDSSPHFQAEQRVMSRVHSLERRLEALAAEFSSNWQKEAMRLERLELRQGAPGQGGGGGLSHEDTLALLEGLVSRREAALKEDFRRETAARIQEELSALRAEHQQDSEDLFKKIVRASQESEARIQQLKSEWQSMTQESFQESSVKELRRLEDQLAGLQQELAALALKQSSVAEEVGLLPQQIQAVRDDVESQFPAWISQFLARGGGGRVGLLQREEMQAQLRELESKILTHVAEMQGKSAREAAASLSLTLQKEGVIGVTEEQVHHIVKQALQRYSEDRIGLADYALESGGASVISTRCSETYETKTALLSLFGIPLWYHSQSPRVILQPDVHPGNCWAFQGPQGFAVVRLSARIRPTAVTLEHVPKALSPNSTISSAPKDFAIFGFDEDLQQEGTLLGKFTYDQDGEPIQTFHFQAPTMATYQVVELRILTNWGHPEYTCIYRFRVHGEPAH
Chain of sun1_human SUN1 (O94901 whole entry): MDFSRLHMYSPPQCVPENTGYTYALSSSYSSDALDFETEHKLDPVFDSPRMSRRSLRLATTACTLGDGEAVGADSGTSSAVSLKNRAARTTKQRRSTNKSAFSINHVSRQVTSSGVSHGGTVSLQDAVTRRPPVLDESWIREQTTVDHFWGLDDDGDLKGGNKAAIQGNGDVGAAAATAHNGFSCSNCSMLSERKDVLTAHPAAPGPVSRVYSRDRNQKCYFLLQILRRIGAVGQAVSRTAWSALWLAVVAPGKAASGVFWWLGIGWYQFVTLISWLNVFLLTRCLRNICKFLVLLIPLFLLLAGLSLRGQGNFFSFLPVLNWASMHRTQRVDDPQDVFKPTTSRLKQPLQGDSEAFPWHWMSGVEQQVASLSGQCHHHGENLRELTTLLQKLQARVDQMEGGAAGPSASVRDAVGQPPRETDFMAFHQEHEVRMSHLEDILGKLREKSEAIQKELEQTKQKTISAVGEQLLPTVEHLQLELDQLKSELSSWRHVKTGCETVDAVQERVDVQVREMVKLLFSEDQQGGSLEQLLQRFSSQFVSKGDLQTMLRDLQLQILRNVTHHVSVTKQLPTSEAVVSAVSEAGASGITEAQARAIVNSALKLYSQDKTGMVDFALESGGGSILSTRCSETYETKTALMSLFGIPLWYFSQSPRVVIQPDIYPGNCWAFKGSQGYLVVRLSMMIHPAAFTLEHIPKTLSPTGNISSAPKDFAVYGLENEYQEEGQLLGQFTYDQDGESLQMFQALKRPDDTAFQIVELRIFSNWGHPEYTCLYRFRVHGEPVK

Nesprin-1 (Homo sapiens), Q8NF91-1 C8774S
effect of a mutation on the interaction (sun2_human SUN2 [1]): disrupting interaction strength | effect of a mutation on the interaction (sun1_human SUN1 [2]): disrupting interaction strength | effect of a mutation on the interaction (sun1_human SUN1 [3]): disrupting interaction | effect of a mutation on the interaction (sun2_human SUN2 [4]): decreasing interaction strength

Nesprin-2 (Homo sapiens), Q8WXH0 L6876A
effect of a mutation on the interaction (sun2_human SUN2 [5]): disrupting interaction strength

Nesprin-2 (Homo sapiens), Q8WXH0 P6883A
effect of a mutation on the interaction (sun2_human SUN2 [5]): disrupting interaction strength

Nesprin-2 (Homo sapiens), Q8WXH0 Y6878A
effect of a mutation on the interaction (sun2_human SUN2 [5]): disrupting interaction strength

Nesprin-2 (Homo sapiens), Q8WXH0-1 C6862S
effect of a mutation on the interaction (sun1_human SUN1 [6]): disrupting interaction strength | effect of a mutation on the interaction (sun2_human SUN2 [7]): disrupting interaction strength
